From patent publication US10499655B2, “Reagents and methods for inhibiting or disrupting biofilm” (priority 2015, dated 2019)

B1: PsIG protein: Protein from Pseudomonas aeruginosa PAO1, purified PsIG (31-442) of SEQ ID NO.: 2, expressed in E. coli, 47 kDa (protein, listed as Pseudomonas aeruginosa)
chain: EIQVLKAPRAVVWKDFLGVNAQFLWFSPERYNKQIDRLQDLGLEWVRLDLHWDRLETAEDQYQLASLDQLVKDLEARQLKSVFYLVGSARFITTAPFYSPFQDQYPPRDPEVFARRMAMLSQRYPSVAAWQVWNEPNLIGFWRPKADPEGYAKLLQASTIALRMVDPEKPVVSAGMAFFSEMPDGRTMFDALGHLGVESLGTIATYHPYTQLPEGNYPWNLDFVSHANQINRALRNAGVPAIWSTEWGWSAYKGPKELQDIIGVEGQADYVLRRLALMSALDYDRIFLFTLSDLDQRASVRDRDYGLLDLDANPKPVYLALQRFLKVTGPKLRPADPPVTEDLPDGSFSIGWTREDGRNVWLFWSARGGNVRLPKLKEATLHDPLSGKVTPLSGSDGLEVPVKSSLQMLVWE

Columns and labels:
Pseudomonas aeruginosa [1] = assay: MIC test strips on bacteria dispersed from a biofilm by PsIG versus planktonic bacteria; type: cell-based; conditions: 24-hour biofilm treated with PsIG 1 hour; MIC read after 16 hours at 37 degrees centigrade
Method: Planktonic Pseudomonas aeruginosa may be cultured for 24 hours with shocking in LBNS medium, and 0.2 ml of such culture may be used as control. As shown in FIGS. 8(a) and 8(c), a control group have shown measurement of MIC values of TOB, CIP by a planktonic bacteria. FIGS. 8(b) and 8(d) have shown measurement of MIC values of TOB, CIP by bacteria cells dispersed from the biofilm after the treatment of the PsIG protein.

[2] = system: biofilm of Pseudomonas aeruginosa; assay: Inhibition of biofilm formation, crystal violet staining, 96-well plate; type: cell-based
Text: (§1) The biomass of the biofilm has been detected by a crystal violet staining method. The method including: discarding cultures (bacteria that are not attached on wells.) in the wells, and washing three times. Then, the biofilm may be stained with 0.1% crystal violet, and washed three times, then the crystal violet combined in the biofilm may be dissolved with 30% acetic acid, and the value of OD560 thereof (for example, the concentration of the crystal violet) may be measured by a spectrophotometer to measure the biomass of the biofilm was measured. PAO1-derived PsI polysaccharide negative strain (PAO1, A psi) may be used as a negative control, and PAO1-derived PsI polysaccharide inducible strain (PAO1, PBAD-psI) (arabinose used as an inducer) may be used as positive control.
A fresh single colony of Pseudomonas aeruginosa on the LBNS plate may be inoculated in LBNS liquid medium, carried out shake culture at 200 rpm at 37 degrees centigrade for 12 hours, and then inoculated in Jensen's medium with 1% inoculum dose, at the same time, different concentrations of PsIG protein may be added. After static culture in a 96-well plate at 30 degrees centigrade for 24 hours, liquid cultures were discarded and the biofilm may be stained with the crystal violet, and biomass of the biofilm was detected, in which specific operations may refer to the steps in Example 1. […]

[3] = system: formed biofilm of Pseudomonas aeruginosa; assay: Disruption of formed biofilm, crystal violet staining; type: cell-based
Text: as §1
A fresh single colony of Pseudomonas aeruginosa on the LBNS plate may be inoculated in LBNS liquid medium, carried out shake culture at 200 rpm at 37 degrees centigrade for 12 hours, and then inoculated in Jensen's media with 1% inoculum dose, with static culture in a 96-well plate at 30 degrees centigrade for 24 hours. Cultures may be discarded and the biofilm (surface-attached bacteria) was washed with 0.8% physiological saline for three times. 100 μl Jensen's media containing 1 nM PsIG may be added into wells and the biofilm treated for 5 or 30 minutes. Then, biomass of the treated biofilm may be detected by the crystal violet staining method, in which specific operation steps of the crystal violet staining method may refer to Example 2.
At the same time, Jensen's media without addition of PsIG may be used as a control group.
A fresh single colony of Pseudomonas aeruginosa on the LBNS plate may be inoculated in LBNS liquid medium, carried out shake culture at 200 rpm at 37 degrees centigrade for 12 hours, and then inoculated in Jensen's media with 1% inoculum dose, and carried out static culture in a 96-well plate at 30 degrees centigrade for 24 hours. Cultures were discarded and the biofilm was washed with 0.8% physiological saline for three times. 100 μl Jensen's media containing 50 nM PsIG protein was added and the biofilm was treated for different times. Then, biomass of the treated biofilms may be tested by a crystal violet staining method, in which specific operation steps of the crystal violet staining method may refer to Example 2.

[4] = system: biofilm of Pseudomonas syringae; assay: Inhibition of biofilm formation, crystal violet staining; type: cell-based; conditions: 50 nM PsIG
Pseudomonas aeruginosa [5] = assay: Inhibitory zone on LBNS plate with filter paper; type: cell-based; conditions: 50 nM PsIG; 24 hours at 37 degrees centigrade
Method: As shown in FIG. 9(a), four experimental groups may be set for buffer; 50 nM PsIG; tobramycin (TOB); combination of TOB and PsIG, respectively. Experiment 2:
As shown in FIG. 9(b), four experimental groups may be set for buffer; 50 nM PsIG; ciprofloxacin (CIP); combination of CIP and PsIG, respectively.

Caco2 = conditions: PsIG treatment 12 hours
Text: (§2) Cytotoxicity of a PsIG protein may be detected by human colon epithelial cell line Caco2 and HT-29.

HT-29 = conditions: PsIG treatment 12 hours
Text: as §2

PAO1 biofilm = assay: Clearance of PsIG-treated biofilm by macrophages, CFU count; type: cell-based, Pseudomonas aeruginosa; conditions: biofilm treated with PsIG 1 hour, then macrophages 2 hours; versus controls without PsIG
Method: The PAO1 biofilm cultured on glass coverslips for 24 hours was treated with PsIG and co-incubated with macrophages, and then scraped and resuspended in 1 ml of physiological saline to quantify colony formation unit (CFU). The mean and SD values of CFU obtained by three repeated experiments were shown in the figure and T test (*, P<0.01) was performed for different experimental groups.
The PAO1 biofilm cultured on glass coverslips for 24-hours may be treated with the PsIG protein for 1 hour, and then incubated with macrophages for 2 hours, and remaining biofilm may be scraped and resuspended in 1 ml of physiological saline for colony formation unit (CFU).

[6] = system: biofilm of Pseudomonas aeruginosa on implants; assay: Mouse implant infection model; type: in vivo; conditions: mouse peritoneum, local treatment, 24 hours; 50 nM PsIG and/or 50 mg kg-1 tobramycin
Method: FIG. 12 illustrates a mouse implant infections model. PsIG improves host clearance of implant biofilms and show combinatory effect with Tob in eradication of implant biofilms in vivo. The horizontal dashed line represents a detection limit of the experiment, which is shown as mean (*P<0.01) of the biofilm counts in five mice.
Implants coated by the biofilm of Pseudomonas aeruginosa may be inserted into mouse peritoneum and the following treatments may be performed locally: 50 nM PsIG treatment alone; 50 mg kg-1 tobramycin treatment alone; the 50 nM PsIG and the 50 mg kg-1 tobramycin co-treatment. After culture in vivo for 24 hours, mice may be sacrificed so as to harvest the implants, and the implants may be removed out and counted on LB plates after homogenization. The number of Pseudomonas aeruginosa on the implants may be tabulated with a format of CFU/ml.

[7] = system: L4-stage Caenorhabditis elegans; assay: Toxicity of PsIG-dispersed biofilm bacteria to C. elegans; type: in vivo; conditions: co-incubated 25 degrees centigrade, 48 hours; live/dead nematodes
Method: The experiment may be carried out by using C. elegans as a host model.
Two experimental groups may be set for Experimental group 1 and Experimental group 2, respectively.
Experiment group 1: the bacterial cells collected from a PsIG-treated bacterial biofilm (a biofilm of Pseudomonas aeruginosa) may be co-incubated with L4-stage Caenorhabditis elegans.
Experimental group 2: co-incubation the planktonic culture of Pseudomonas aeruginosa grown for 24 hours may be co-incubated L4-stage Caenorhabditis elegans.
Experimental group 1 and Experimental group 2 were placed in 96-well plates respectively and co-incubated at 25 degrees centigrade for 48 hours. […] Each group was repeated for three times, the results are expressed with a format of the mean value±SD value.

[8] = Degradation of PsI polysaccharide in vitro, immunoblotting; type: biochemical, Pseudomonas aeruginosa; conditions: 50 nM PsIG
Text: Preparation and purification of PsI polysaccharide may be carried out with reference to published document (Molecular Microbiology 2009; 73:622-638, titled Genetic and biochemical analyses of the Pseudomonas aeruginosa PsI exopolysaccharide reveal overlapping roles for polysaccharide synthesis enzymes in PsI and LPS production, written by Byrd M S, Sadovskaya I, Vinogradov E et al.)
The standard curve may be prepared according to the following method: PsI polysaccharide prepared by the above method may be diluted 10 times with gradient and the PsI polysaccharide may be detected by immunoblotting.
To Solution 1 (PBS phosphate buffer), PsI polysaccharide and 50 nM of the PsIG protein obtained in Example 16 may be added to obtain Reaction system 1, the concentration of PsI polysaccharide in reaction system 1 may be 4 mg/ml, and the concentration of PsIG protein may be 50 nM. The eight same reaction systems 1 may be incubated at 20 degrees centigrade, 25 degrees centigrade, 30 degrees centigrade, 37 degrees centigrade, 40 degrees centigrade, 45 degrees centigrade, 50 degrees centigrade and 55 degrees centigrade for one hour, respectively, and then remaining PsI polysaccharide may be detected with a PsI polysaccharide antibody (the PsI polysaccharide antibody may be obtained by using PsI polysaccharide as immunogen) by immunoblotting. […]

[9] = system: mouse macrophages (RAW264.7)

Row | Molecule | MIC values for bacteria dispersed from biofilms by PsIG compared with planktonic cells (Pseudomonas aeruginosa [1]) | inhibitory rate on biofilm formation ([2]; PsIG protein at 1 nM, static culture 30 degrees centigrade, 24 hours) [%] | inhibition of formation of the biofilm ([2]; concentration l0nm-50nm, static culture 24 hours) | reduction of biomass of formed biofilm ([3]; 1 nM PsIG, treated 30 minutes, 24-hour biofilm) [%] | effect on biomass of formed biofilm ([3]; 1 nM PsIG, treated five minutes, 24-hour biofilm) | reduction of biomass of formed biofilm ([3]; 50 nM PsIG, treated 10 minutes, 24-hour biofilm) [%] | effect on biomass of formed biofilm ([3]; 50 nM PsIG, treated 30 minutes, 24-hour biofilm) | effect on biomass of formed biofilm ([3]; 50 nM PsIG, treated five minutes, 24-hour biofilm) | effect on biomass of formed biofilm ([3]; 50 nM PsIG, treated more than 30 minutes) | inhibitory effect on biofilm [4] | inhibitory zone, PsIG alone (Pseudomonas aeruginosa [5]) | effect on activity of colon epithelial cells (MTT) (Caco2) | effect on activity of colon epithelial cells (MTT) (HT-29) | number of remaining bacteria of the biofilm (PAO1 biofilm) | number of bacteria on the implants [6] | toxicity of PsIG-dispersed biofilm bacteria versus planktonic bacteria [7] | temperature of highest degradation rate of PsI polysaccharide ([8]; 4 mg/ml PsI, one hour) [degrees centigrade] | reduction of amount of PsI polysaccharide compared with untreated control ([8]; 30 degrees centigrade, 1 hour) [%] | toxic effects on macrophages [9]
1 | NC[C@H]1O[C@H](O[C@H]2[C@H](O)[C@@H](O[C@H]3O[C@H](CO)[C@@H](O)[C@H](N)[C@H]3O)[C@H](N)C[C@@H]2N)[C@H](N)C[C@@H]1O [tobramycin] | lower | – | – | – | – | – | – | – | – | – | – | – | – | – | – | – | – | – | –
2 | O=C(O)c1cn(C2CC2)c2cc(N3CCNCC3)c(F)cc2c1=O [ciprofloxacin] | lower | – | – | – | – | – | – | – | – | – | – | – | – | – | – | – | – | – | –
3 | B1 | – | 50 | significantly inhibit | 50 | no effect | 50 | reduced to a level similar to the PsI polysaccharide-negative strain | significantly reduced | no more significant reduction | same inhibitory effects | does not produce inhibitory zone | no effect | no effect | least | ≈ 10^3 CFU/mL | no significant difference in toxicity | 45 | 75 | not shown any toxic effects
